Measurements reported in the nanobody polyreactivity screen of Harvey et al. (2022).

Assay: yeast display, Sf9 membrane polyspecificity reagent, FACS + sequencing; frameworks hold sequencing errors
In short: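 Sorting gates, low and high (top ~1%), were placed on anti-HA fluorescence to track expression and on streptavidin fluorescence to track reagent binding. A clone's polyreactivity label is taken from the gate it came out of. The reagent was 10% biotinylated, detergent-solubilized Sf9 membrane, applied for 1 hour at 4 °C to galactose-induced yeast display cells.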

Sequence	polyreactivity (PSR sort gate)
QVQLVESGGGLVQAGGSLRLSSAASGFTFKAYVMGWYRQAPGKERELVAASTRSGSSTYYADSVKGRFTISRDNGKNSVYLQMYSLKPEDTAVYYCAARYTQRPRRNYWGQVTQVTVSS	high polyreactivity
QVQLVESGGGLVQAGGSLRLSCAASGFILPYYAMGWYRQAPGKERELVAAISDTGRTNYADSVKGRFTISRDNAKYTVYLQMNSLKPEDTAVYYCAARYYSPRYWFRYDSWGQCTQVTVSS	high polyreactivity
QVQLVESGGGLVQAGGSLSLSCAASGSTFNRYAMRSYRQAPGQESELVDTINLNTGSTYADSVKGRFTISRDNAKNTVYLEMNSVKPEDTAVYYCAAVGQTHPTSPLSTKYDYWGQGTQVTVSS	low polyreactivity
QVQLVESGGGLVQAGGSLRLSCAASGSTFRNYSMGWYRQAPGKERELVAAISGSGGRTNYADSVKGRFTISRDNAKNTVYLQMNSLKPEDTAVYYCNADGGPGYPRAYDYWGQGTQVTVSS	low polyreactivity
QVQLVESGGGLVQAGGSLRFSCAASGSIFWSNAMGWYRQAPGKERELVAAITTSDGSTYYADSVKGRFTISRDNAKNTVYLQMNSLKPEDTAVYYCAADTYYVSYGYYYWGQGTQVTVSS	low polyreactivity
QVKLVESGGGLVQAGGSLRLSFPASGRTFKYYAMGLYRQEPGKDRELVAAISWSGGSTYYADSVKGRFTISRDNEKNTVYLQMNSLKPEDTAVYYCAAVRHYHGTWYDYWGQGTQVTVSS	high polyreactivity
PVQRVESGGGLVQAGGSLRLSCAASGRTFDSYAMGWYRQAPGKERELVAAISSRGTRTYYADSVKGRFTSSRDNAKNPVYLQINSLQPEDTAGYYCNAGGAYEYDYWGQGSQVTVSS	high polyreactivity
QVQLVESAAGLVQAGVSLRLSCAASGFTLFYYAMGWYRQEPGKERELVAGISRRGGSTYYADSVKGRFTISRDNEKNTVYLQMNSLKPEDTAVYYCAAGLCGYKSDTRGDYWGQGTQVTVSS	low polyreactivity
QVQLVESGGGLVQAGVSLRFSCAASGYIFDVNALGWYRQEPGKERELVAAISQRGTRTYYADSVKGRFTITRDNANNTVFLQMNSLKPEYTAVYYCNRGGWRQYDSWGQGTQVTVSS	high polyreactivity
QVQLVESGGGLVQAGCSLLLICAASGRTFCFNTMGWYRQAPGKERELVASISGSGGRTYFADSVKGRFTISRDNEKNTVYFQMNSLKPEDTAVYYCAARRYSRDYDYWGQGTQVTVSS	high polyreactivity
QVHLQESGGGLVQAGGSLRLSCAASGTISDSGLMGWYRQAPGKERELVAGISSGGINNYADSVKGRFTISRDNAKYTEYLQMNSLKPEDTAVYWGQGTQVTLSS	low polyreactivity
QVQLVESGGGLVQAGGSLRLSCAASGSIFFAYAMGWYRQAPGKERELVAAITSGVSTNYADSVKGRFTISRDNAKNTVYLQMNSLKPEDTAVYYCNADFDYGFDAGLAVQVVIHDYWGQGTQVTVSS	low polyreactivity
QVQLVESGGGLVQAGGSLRLICAASGFTFRTYAMGWYRQAPGKERELVAAINYSGGSTYYADSVKGRFTISRDNAKNTVYLQMNSVKPEDTAVYYCNKQRDVQVYVRYPMNYWGQGTQVTVSS	low polyreactivity
QVQHVESGGGLVQAGGSLRLSCAASGRIFPYYAMGWYRQAPGKERELVATITSGGSTYYADSVKGRFTISRDNAKNTVYLQMNSLKPEDTAVYYCAARYPSIYYYSYDYWGQGTQVTVSS	high polyreactivity
QVQLVESGGGLVQAGGSLRLSCAASGGTFNSNAMGWYRQAPGKERELVAGITSGSDTSYADSVKGRFTISRDNAKNTVYLQMNSLKPEDSAVYYCATRDYPLYGYWGQGTQVTVSS	low polyreactivity
QVQLVESGGGLVQAGGSLRLSCAASGSIFGRYVMGWYRQAPGKERELVAAITSVGITNYADSVKGRFTISRDNAKNTVYLQMNSLKPEDTAVYYCAKRYYRYGARSWYYPYDYWGQGTQVTVSS	high polyreactivity
QVQLVESGGGLVQAGGSLRLSCAASGIIFPVYTKGWYRQAPGKERELVAAISTSGGRTYYADSVKGRFTISRDNAKNTVYLQMNSLKPEYTAVYYCAAKRYTRKAGYYYWGQGTQVTVSS	high polyreactivity
QVQLVESGGGLVQAGGSLRLSCAASGNIFESYGMGGYRQAPGKERELVAAISFSGDSTYYADSVKGRFTISRDNAKNSVYLQMNSLKPEDTAVYYCATDVGYVYGYYYWGQGTQVTVSS	low polyreactivity
QVQLVESRGGLVQAGGSLRLSCAASGRIFGLYAMGWYRQAPGKERELVAAYADSVKGRFTISRDNAKNTVYLKMNCLKPEDTAVYYCAKGPLYAGYSIDLRDFNYWGQGTQVNVSS	low polyreactivity
QVQLVESGGGLVQAGGSLRLSCAASGSTFYYYAMGWYRQAPGTAREWVAAISYSGGRTYYADSVKGRFTISRDHAKNTDDIQMNSLKPEYTAVYYCATGQPILALRYAYGYWGQATQVTVSS	low polyreactivity
QVQLVESGGGLVQAGGSLRLSCAASGRIFFSYMGWYRQAPGKERELVAAISSGGSTYYADSVKGRFTISRDNAKNTVYLQMNSLKPEDTAVYYCAARYRLDGTHMTGYAYYSWGQGTQVTVSS	high polyreactivity
QVQLVESGGGLVQAGGSLRLSCAASGSTFVYAMAWSRQAPGKERELVAAIRLRSGSTYYADSVKGRFTISRDNAKNTVYLQMNSLKPEDTAVYYCAAAIQSSKVSVKFGYWGQGTQVTVSS	high polyreactivity

Sequence	polyreactivity (PSR sort gate)
QVQLVESGGGLVQAGGSLRLSCAASGFIFPTYAMGWYRQAPGKEREFVASITRRGGSTYYADSVKGRFTISRDNAKNTVYLQMNSLKPEDTAVYYCAAGYYGFRGGGSDYWGQGTQVTVSS	high polyreactivity
QVQLVESGGGLVQAGGSLRLSCAASGRIFRYNAMGWYRQAPGKERELVATIRWGGGGTYYADSVKGRFTISRDNAKNSVYLLMNSLKPEDTAVYYCNAKRYSPGYNYWGQGTQVTVSS	high polyreactivity
QVQLVESGGGLVQAGGSLRLSCAASGFTVSAYALGWYRQAPGKERELVAAISTRGGSTRYADSVKGRFTISRDNAKNTVYLQMNSLKPEDTAVYYCAADTRSFYRYDYWGQGTQVTVSS	high polyreactivity
QDQLVESGGGLDQAGGSLRLSCAASGSTLGNNAMGWYRQAPGKERELVAAISTRGGSTYYADSVKGRFTISRDNAKNTVYLQMNSLKPEDTAVYYCAADFGQYHGDVRKMDYWGQGTQVTVSS	low polyreactivity
QVQLVESGGGLVQAGGSLRLSCAASGSIFITNAMGWYRQAPGKERELVAAISGRGGSTYSADSVKGRFTISRDNAKNTVYLQMNSLKPEDTAVYYCNAYSYRVSGYDYWGQGTQVTVSS	high polyreactivity
QVQLVESGGGLVQAGGSLRLSCAASGFTFGYYAMGWYRQAPGKERELVASMTVRGGSTYYADSVKGRFTISRDNAKNTVYLQINSLKPEDTAVYYCAAKRYPTWYPSQRSRYDSWGQGTQVTVSS	high polyreactivity
QVQLVESGVGLVQAGGSLRLSCAASGSIFYHYVMGWYRQAPGKERELVAGISWSGVSTYYADSVKGRFTISRDNAKNTVYLQMNSLKPEDTADYYCAAVYRQSRLHTFGYWGQGTQVTVSS	high polyreactivity
QVQLVESGGGLVQAGGSLPLRCPASGSIFYQYAMGWYRQAPGKVRELVARIRGSTGTTYYADSVKGRFTISRDNAKNTVYLHMNSLKPEDTAVYYCNAARYQGRSRFDYWGQGSQVTVSS	high polyreactivity
QVQLVESGGGLFQAGGILRLTCAASGLTIYDYAMRWSRQAPAKERELVAANTRSAGSTYYADSVKGRFTISRDYAKYTVYLLMNSLKPEDTAVYYCAARGKIRYQGYYGSDQYYYWGQGTQVSVSS	high polyreactivity
QVHLVESGGGLVQAGGSLRLSCAASGSTFFKNAMGWYRQAAGKERELVAAITWSGDRTYADSVKGRFTISRDNAKYTVYLQMNSLKPEDTAVYYCNVDITGYEDDYWGQGTQVTVSS	low polyreactivity
QVQLVESGGGLVQAGGSLRLRCAASGNTFAYYAMGWYRQAPGKERELVASITGSGTSTYYADSVKGRFTISRDNEKNTVYLQMNSLKPEDTAVYYCAKRYYYKWFGYWGQGTQVTVSS	high polyreactivity
QVQLVESGGGLVQAGGSLRLSCAASGRIFYPNAMGWYRQAPGKERELVAAISKRGGRTYYADSVKGRFTISRDNAKNTVYLQMNSLNPEDTAVYYCATRWASYPRTGRYDYWGQGTQVTVSS	high polyreactivity
QVQLVESGGGLVQAGGSLRLTCAASGSIFYRYVMGWYRQAPGKEMELVAVISGSGGNTYYADSVKGRFTISRDNAKNTVYLQRNSLTPDDTAVYYCAASWYFLPTQTRPYYGYYYWGQATQVTVSS	high polyreactivity
QVQLVESGGGLVQAGGSLRLSCAASGSIFTRYAMGWYRQAPGKERELVAVISVSGGRTYYADSVKGRFTISRDNAKNTVYLQMNSLKPEDTAVYYCATDYYRPALDYWGQGTQVTVSS	high polyreactivity
QVQLVESGGGLVQAGGSLRLSCAASGSIFNYNAMGWYRQAPGKERELVAGITTSGGSTYYADSVKGRFTISRDNAKKTVYLQMNSLKPEDTAVYYCAAYDYISSTYFLDDYWGQGTQVTVSS	low polyreactivity
QVQLVESGGALVQAGGSLRLSCAASGRTFFGNAMGRYRQAPGKERELVAAISFSGGRTDYADSVKGRFTISRDNAKNTVFLQMNSLKPEDTAVYYCAARTYSAPRNRYYYWGQGTQVTVSS	high polyreactivity
QVQLVESGGGLVQAGGSLRLSCAASGSIFRANVLGWYRKAPGKERELVAAISRGGGTTYYADSVKGRFTISRDNAKNTVYLQMNSLKPEDTAVYYCAALGHYRSNNNVDMDYWGQGTQVTVSS	high polyreactivity
QFQLVESGGGLVHAGGRLRLSCAASGITFVTYAMGWYRQAPGKERELVAAISRSGGRPYYADSVKGRFTISRDNATNTDYLQMNSLKPEDTAVYYCAAERKNKYDYWGQGTQVTVSS	high polyreactivity
QVQLVESGGGLVQAGGSLRLSCAASGGIFYTYAMGWYRQAPGKERELVAGINWSGSSTYYADSVKGRFTISRDNAKNTVYLQMNSLKPEDTAVYYCAARSYSYSTGDYWGQGTQVTVSS	low polyreactivity
QVQLVDSGGGLVQAGGSLRLSCAASGSIVVLYAMGWYRQAPGKERELVAAITSGASTNYADSVKGRFTISRDNAKNTVYLQMNSLKPEDTAVYYCHTGSRLDRVDSWGQGTQVTVSS	low polyreactivity
QVQLQESGGGLVQACGSQRLSCAASGSISEGQDKGWYRRAPGKEREFVAGIAPGATTYYADSEKGRFTISRDNAKNTVYLQMNSLKPEDTAVYFCAARSVTETDHDYWGQGTQVTVSS	low polyreactivity
